Assay results: patent US20210017287A1 (published 2021)

T1: TNFRSF25-Fc fusion protein (UniProt Q93038 25-199, limits assumed, biotinylated in the capture ELISA (site not stated))
T1 construct: also called TNFRSF25-Fc protein; biotinylated antigen protein; not shown: Fc part
T1 sequence (looked up): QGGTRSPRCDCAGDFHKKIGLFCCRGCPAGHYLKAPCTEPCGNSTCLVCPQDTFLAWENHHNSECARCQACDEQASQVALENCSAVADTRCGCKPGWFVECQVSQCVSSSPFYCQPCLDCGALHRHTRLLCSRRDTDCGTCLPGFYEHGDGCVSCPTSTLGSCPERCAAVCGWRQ

B1: 1F10 (scFv, V domains shown)
VH: EVQLVESGGGLSQPGNSLQLSCEASGFTFSNHDLNWVRQAPGKGLEWVAYISSASGLISYADAVRGRFTISRDNAKNSLFLQMNNLKSEDTAMYYCARDPAYTGLYALDFWGQGTQVTVSS
VL: QPVLTQSPSASASLSGSVKLTCTLSSELSNFTIVWYQQRPDKAPKYVMYLKSDGSHSKGDGIPDRFSGSSSGAHRYLSISNVQSEDDATYFCGAGYTLASQYGWVFGSGTKVTVL
notes: scFv; Frameworks and unchanged CDRs are those of the parental clone
B2: W3072-z4C12-scFv (scFv, V domains shown)
VH: EVQLVESGGGLSQPGNSLQLSCEASGFTFSNHDLNWVRQAPGKGLEWVAYISSASGLISYADAVRGRFTISRDNAKNSLFLQMNNLKSEDTAMYYCARDPPYSGLYALDFWGQGTQVTVSS
VL: QPVLTQSPSASASLSGSVKLTCTLSSELSSYTIVWYQQRPDKAPKYVMYLKSDGSHSKGDGIPDRFSGSSSGAHRYLSISNVQSEDDATYFCGAGYTLAGQYGWVFGSGTKVTVL
notes: scFv (captured by anti-c-myc antibody); also called WT; wild-type
B3: 9G2 (scFv, V domains shown)
VH: EVQLVESGGGLSQPGNSLQLSCEASGFTFSNHDLNWVRQAPGKGLEWVAYISSASGLISYADAVRGRFTISRDNAKNSLFLQMNNLKSEDTAMYYCARDPAYTGLYALDFWGQGTQVTVSS
VL: QPVLTQSPSASASLSGSVKLTCTLSSELSWYTIVWYQQRPDKAPKYVMYLKSDGSHSKGDGIPDRFSGSSSGAHRYLSISNVQSEDDATYFCGAGYTLAGQYGWVFGSGTKVTVL
notes: as for B1
B4: 2A5 (scFv, V domains shown)
VH: EVQLVESGGGLSQPGNSLQLSCEASGFTFSNHDLNWVRQAPGKGLEWVAYISSASGLISYADAVRGRFTISRDNAKNSLFLQMNNLKSEDTAMYYCARDPAYTGLYALDFWGQGTQVTVSS
VL: QPVLTQSPSASASLSGSVKLTCTLSSELSNFTIVWYQQRPDKAPKYVMYLKSDGSHSKGDGIPDRFSGSSSGAHRYLSISNVQSEDDATYFCGMGYTLANQYGWVFGSGTKVTVL
notes: as for B1
B5: 9A5 (scFv, V domains shown)
VH: EVQLVESGGGLSQPGNSLQLSCEASGFTFSNHDLNWVRQAPGKGLEWVAYISSASGLISYADAVRGRFTISRDNAKNSLFLQMNNLKSEDTAMYYCARDPAYTGLYALDFWGQGTQVTVSS
VL: QPVLTQSPSASASLSGSVKLTCTLSSELSGFTIVWYQQRPDKAPKYVMYLKSDGSHSKGDGIPDRFSGSSSGAHRYLSISNVQSEDDATYFCGAGYTLANQYGWVFGSGTKVTVL
notes: as for B1
B6: 10B8 (scFv, V domains shown)
VH: EVQLVESGGGLSQPGNSLQLSCEASGFTFSNHDLNWVRQAPGKGLEWVAYISSASGLISYADAVRGRFTISRDNAKNSLFLQMNNLKSEDTAMYYCARDPAYSGLYALDFWGQGTQVTVSS
VL: QPVLTQSPSASASLSGSVKLTCTLSSELSNFTIVWYQQRPDKAPKYVMYLKSDGSHSKGDGIPDRFSGSSSGAHRYLSISNVQSEDDATYFCGAGYTLAGQYGWVFGSGTKVTVL
notes: as for B1
B7: 6G11 (scFv, V domains shown)
VH: EVQLVESGGGLSQPGNSLQLSCEASGFTFSNHDLNWVRQAPGKGLEWVAYISSASGLISYADAVRGRFTISRDNAKNSLFLQMNNLKSEDTAMYYCARDPPYSGLYALDFWGQGTQVTVSS
VL: QPVLTQSPSASASLSGSVKLTCTLSSELSNFTIVWYQQRPDKAPKYVMYLKSDGSHSKGDGIPDRFSGSSSGAHRYLSISNVQSEDDATYFCGAGYTLAGQYGWVFGSGTKVTVL
notes: as for B1
B8: 3G4 (scFv, V domains shown)
VH: EVQLVESGGGLSQPGNSLQLSCEASGFTFSNHDLNWVRQAPGKGLEWVAYISSASGLISYADAVRGRFTISRDNAKNSLFLQMNNLKSEDTAMYYCARDPAYTGLYALDFWGQGTQVTVSS
VL: QPVLTQSPSASASLSGSVKLTCTLSSELSGFTIVWYQQRPDKAPKYVMYLKSDGSHSKGDGIPDRFSGSSSGAHRYLSISNVQSEDDATYFCGAGYTLARQYGWVFGSGTKVTVL
notes: as for B1
B9: 42G2 (scFv, V domains shown)
VH: EVQLVESGGGLSQPGNSLQLSCEASGFTFSNHDLNWVRQAPGKGLEWVAYISSASGLISYADAVRGRFTISRDNAKNSLFLQMNNLKSEDTAMYYCARDPPYSGLYALDFWGQGTQVTVSS
VL: QPVLTQSPSASASLSGSVKLTCTLSSELSWYTIVWYQQRPDKAPKYVMYLKSDGSHSKGDGIPDRFSGSSSGAHRYLSISNVQSEDDATYFCGAGYTLAGQYGWVFGSGTKVTVL
notes: scFv
B10: 5A6 (scFv, V domains shown)
VH: EVQLVESGGGLSQPGNSLQLSCEASGFTFSNHDLNWVRQAPGKGLEWVAYISSASGLISYADAVRGRFTISRDNAKNSLFLQMNNLKSEDTAMYYCARDPPYTGLYALDFWGQGTQVTVSS
VL: QPVLTQSPSASASLSGSVKLTCTLSSELSNFTIVWYQQRPDKAPKYVMYLKSDGSHSKGDGIPDRFSGSSSGAHRYLSISNVQSEDDATYFCGAGYTLANQYGWVFGSGTKVTVL
notes: as for B1
B11: 5E1 (scFv, V domains shown)
VH: EVQLVESGGGLSQPGNSLQLSCEASGFTFSNHDLNWVRQAPGKGLEWVAYISSASGLISYADAVRGRFTISRDNAKNSLFLQMNNLKSEDTAMYYCARDPAYTGLYALDFWGQGTQVTVSS
VL: QPVLTQSPSASASLSGSVKLTCTLSSELSNYTIVWYQQRPDKAPKYVMYLKSDGSHSKGDGIPDRFSGSSSGAHRYLSISNVQSEDDATYFCGMGYTLANQYGWVFGSGTKVTVL
notes: as for B1
B12: 4B6 (scFv, V domains shown)
VH: EVQLVESGGGLSQPGNSLQLSCEASGFTFSNHDLNWVRQAPGKGLEWVAYISSASGLISYADAVRGRFTISRDNAKNSLFLQMNNLKSEDTAMYYCARDPAYTGLYALDFWGQGTQVTVSS
VL: QPVLTQSPSASASLSGSVKLTCTLSSELSNYTIVWYQQRPDKAPKYVMYLKSDGSHSKGDGIPDRFSGSSSGAHRYLSISNVQSEDDATYFCGAGYTLANQYGWVFGSGTKVTVL
notes: as for B1
B13: 66B8 (scFv, V domains shown)
VH: EVQLVESGGGLSQPGNSLQLSCEASGFTFSNHDLNWVRQAPGKGLEWVAYISSASGLISYADAVRGRFTISRDNAKNSLFLQMNNLKSEDTAMYYCARDPPYSGLYALDFWGQGTQVTVSS
VL: QPVLTQSPSASASLSGSVKLTCTLSSELSSYTIVWYQQRPDKAPKYVMYLKSDGSHSKGDGIPDRFSGSSSGAHRYLSISNVQSEDDATYFCGAGYTLANQYGWVFGSGTKVTVL
B14: 42F9 (scFv, V domains shown)
VH: EVQLVESGGGLSQPGNSLQLSCEASGFTFSNHDLNWVRQAPGKGLEWVAYISSASGLISYADAVRGRFTISRDNAKNSLFLQMNNLKSEDTAMYYCARDPPYSGLYALDFWGQGTQVTVSS
VL: QPVLTQSPSASASLSGSVKLTCTLSSELSFYTIVWYQQRPDKAPKYVMYLKSDGSHSKGDGIPDRFSGSSSGAHRYLSISNVQSEDDATYFCGAGYTLAGQYGWVFGSGTKVTVL
B15: 42H8 (scFv, V domains shown)
VH: EVQLVESGGGLSQPGNSLQLSCEASGFTFSNHDLNWVRQAPGKGLEWVAYISSASGLISYADAVRGRFTISRDNAKNSLFLQMNNLKSEDTAMYYCARDPPYSGLYALDFWGQGTQVTVSS
VL: QPVLTQSPSASASLSGSVKLTCTLSSELSYYTIVWYQQRPDKAPKYVMYLKSDGSHSKGDGIPDRFSGSSSGAHRYLSISNVQSEDDATYFCGAGYTLAGQYGWVFGSGTKVTVL
B16: 43F11 (scFv, V domains shown)
VH: EVQLVESGGGLSQPGNSLQLSCEASGFTFSNHDLNWVRQAPGKGLEWVAYISSASGLISYADAVRGRFTISRDNAKNSLFLQMNNLKSEDTAMYYCARDPPYSGLYALDFWGQGTQVTVSS
VL: QPVLTQSPSASASLSGSVKLTCTLSSELSSFTIVWYQQRPDKAPKYVMYLKSDGSHSKGDGIPDRFSGSSSGAHRYLSISNVQSEDDATYFCGAGYTLAGQYGWVFGSGTKVTVL
B17: 12F7 (scFv, V domains shown)
VH: EVQLVESGGGLSQPGNSLQLSCEASGFTFSNHDLNWVRQAPGKGLEWVAYISSASQLISYADAVRGRFTISRDNAKNSLFLQMNNLKSEDTAMYYCARDPPYSGLYALDFWGQGTQVTVSS
VL: QPVLTQSPSASASLSGSVKLTCTLSSELSSYTIVWYQQRPDKAPKYVMYLKSDGSHSKGDGIPDRFSGSSSGAHRYLSISNVQSEDDATYFCGAGYTLAGQYGWVFGSGTKVTVL
notes: scFv; Position 12 is a library position read from the clone ID
B18: 10C3 (scFv, V domains shown)
VH: EVQLVESGGGLSQPGNSLQLSCEASGFTFSNHDLNWVRQAPGKGLEWVAYISSDSGLISYADAVRGRFTISRDNAKNSLFLQMNNLKSEDTAMYYCARDPPYSGLYALDFWGQGTQVTVSS
VL: QPVLTQSPSASASLSGSVKLTCTLSSELSSYTIVWYQQRPDKAPKYVMYLKSDGSHSKGDGIPDRFSGSSSGAHRYLSISNVQSEDDATYFCGAGYTLAGQYGWVFGSGTKVTVL
notes: scFv

These binders were tested against T1, TNFRSF25-Fc fusion protein (assay: binding ELISA of scFv clones on TNFRSF25-Fc (FIG. 10)).
With B1 the Bmax was 1.73.
B2 was tested, and the Bmax was 0.1.
B3 showed a Bmax of 1.04.
In the case of B4, the Bmax is reported as 1.28.
In the case of B5, the Bmax is reported as 1.81.
Work on B6 yielded a Bmax of 1.49.
B7 gave a Bmax of 1.32.
In the case of B8, the Bmax is reported as 1.53.
Binder B9 has a Bmax of 0.447.
B10 was tested, and the Bmax was 1.89.
In the case of B11, the Bmax is reported as 1.32.
Work on B12 yielded a Bmax of 1.26.

Each binder was assayed against T1, TNFRSF25-Fc fusion protein (assay: capture ELISA of scFv, against W3072-z4C12-scFv).
Experimental: (§1) Primary screening of the scFv library: The primary screen consisted of a single point ELISA (SPE) assay, which was carried out using periplasmic extract (PE) of bacteria grown in 96-well (deep well) plates. Briefly, this capture ELISA involved coating individual wells of a 96-well Maxisorp Immunoplate with anti-c-myc antibody in coating buffer (200 mM Na₂CO₃/NaHCO₃) at pH 9.2 overnight at 4° C. The next day, the plate was blocked with Casein for 1 hour at room temperature. scFv PE was then added to the plate and incubated at room temperature for 1 hour. After washing, biotinylated antigen protein was added to the well and the mixture was incubated for 1 hour at room temperature. This was followed by incubation with streptavidin-horseradish peroxidase (HRP) conjugate for 1 hour at room temperature. HRP activity was detected with tetra-methyl-benzidine (TMB) substrate, and the reaction was quenched with 2M HCl. Plates were read at 450 nm. […] The scFv protein concentration was determined by comparing the ELISA signals with signals generated by the reference scFv. The binding assay was repeated once more for all positive variants under normalized scFv concentrations in order to determine the relative binding affinity of the mutant scFv and the parental antibody. Selected scFv hits displaying improved binding were re-formulated to IgG1 and tested in a caspase-3 assay as described below.
In the case of B9, the “fold increase in ELISA signal” value is reported as > 10 fold.

The binders below were run against T1, TNFRSF25-Fc fusion protein (assay: single point capture ELISA, scFv captured by anti-c-myc, biotinylated antigen).
Experimental: as §1
Work on B13 yielded an OD450 of 0.4 OD450.
With B14 the OD450 was 2.33 OD450.
Work on B15 yielded an OD450 of 1.67 OD450.
Work on B16 yielded an OD450 of 1.6 OD450.
B17 showed an OD450 of 0.85 OD450.
For B18, the OD450 was 0.7 OD450.
For B9, the OD450 was 3.19 OD450.
